Square brackets hold non-standard residues; d marks the D form. Peptide text beside a SMILES is read from it. * marks the point of attachment. DOTA = O=C(O)CN1CCN(CC(=O)O)CCN(CC(=O)*)CCN(CC(=O)O)CC1; Cha = N[C@@H](CC1CCCCC1)C(=O)O; Nle = CCCC[C@H](N)C(=O)O; Ahx = NCCCCCC(=O)O
Assays:
in vivo [1] = type: in vivo, nude mice; details: female, nude, mouse, in vivo, total radioactivity
Experimental: BN/GRP receptor-positive MDA-MB-231 and PC3 cell lines (American Type Culture Collection, Rockville, USA) were grown as monolayers at 37 °C in a humidified atmosphere containing RPMI-1640 culture media with 10% fetal bovine serum (FBS) in tissue culture flasks. Twenty-four hours prior to conducting the tumor implantation, the media was replaced with RPMI-1640/10% FBS. The cells were grown to 80-90% confluency and harvested by trypsinization. After centrifugation, about 50 million cells were suspended in 1 mL media for implantation into mice. To prepare cells for inoculation, MDA-MB-231 or PC3 cancer cells with media were centrifuged, the media decanted, and the cell pellet was mixed with phosphate-buffered saline (PBS) to reach a concentration of approximately 5 million cells per 100 μL PBS. Human MDA-MB-231 breast cancer xenografts female mouse models were used for in vivo tumor-targeting experiments. For the implantation of tumor xenografts, approximately five million MDA-MB-231 cells in suspension of 100 μL sterile PBS were injected subcutaneously into the left thigh of each mouse. Tumors were allowed to grow for 4-6 weeks by which tumors had reached weights of 200-300 mg. After sufficient growth of tumors, animals were injected with 20-30 μCi of the radiotracers and the animals were sacrificed at specified time points. The uptake of ^68Ga-radiolabeled peptides in the tumors and other major body organs was calculated by γ-counting as described above.

[2] = target: T1, BN/GRP receptor-positive MDA-MB-231 human breast cancer cells (Homo sapiens, UniProt P30550); test: Saturation binding assay on MDA-MB-231 cells; details: n = 3-5 experiments
T1 construct: BN/GRP receptor-positive MDA-MB-231, MCF7, T47D human breast cancer, and PC3 human prostate cancer lines; host or cells: MDA-MB-231, MCF7, T47D (human breast cancer), PC3 (human prostate cancer); intact cells
Experimental: (§1) The cell binding of ^68Ga-radiolabeled peptides into BN/GRP receptor-positive MDA-MB-231, MCF7, T47D human breast cancer, and PC3 human prostate cancer lines (American Type Culture Collection, Rockville, MD, USA) was performed according to the method described previously. In brief, ∼ 300,000 cells (in 300 μL in low-serum media) were incubated with various amounts of radiopeptides, ranging between 0.1 and 25 nM of peptide (prepared from the serial dilutions of HPLC-purified radiopeptides), in duplicate for 60 min at room temperature. The initial concentrations of ^68Ga-labeled peptides were determined according to a well-established HPLC technique with simultaneous detection by UV absorbance. As the amount of BN peptide in the reaction mixture was too small to be detected by UV absorption at 220 nm, the radioactive peptide chromatograms from the HPLC analysis were compared (with UV chromatograms) with those of known concentrations of the corresponding nonradioactive peptides for the mass determination. Incubation was terminated by dilution with cold saline (300 μL) and the cells were pelleted by centrifugation. The cell pellets was then rapidly washed with cold saline to remove any unbound peptide and centrifuged to collect supernatants. Radioactivity in the cell pellet and the washings was measured in a γ-counter. Non-specific binding was determined in the presence of ~ 200-fold molar excess of unlabeled BN peptide. Specific binding is calculated by subtracting the non-specifically bound radioactivity from that of the total binding. The dissociation constant (Kd) was calculated using a plot of cell bound activity versus the concentration of the radioligand using GraphPad Prism software (GraphPad Software Inc., San Diego, CA, USA).

[3] = target: T2, BN/GRP receptor-positive PC3 human prostate cancer cells (Homo sapiens, UniProt P30550); test: Saturation binding assay on PC3 cells; details: n = 3-5 experiments
T2 construct: BN/GRP receptor-positive MDA-MB-231, MCF7, T47D human breast cancer, and PC3 human prostate cancer lines; host or cells: MDA-MB-231, MCF7, T47D (human breast cancer), PC3 (human prostate cancer); intact cells
Experimental: as §1

in vivo [4] = test: in vivo; set-up: species or system Balb/c mice; details: Balb/c, mouse, iv; for dose excreted at 1 h / dose excreted at 2 h / tissue uptake at 1 h / tissue uptake at 2 h: total radioactivity
Experimental: Approval for the animal protocol used in this study was obtained from the Institutional Animal Care and Use Committee. Animal studies were conducted according to the international regulations governing the safe and proper use of laboratory animals. In vivo biodistribution were performed on healthy Balb/c mice (n = 3–5 in each group, body weight 19–22 g) at 1 and 2 h after intravenous injection of the HPLC-purified radiopeptide (100 μL, 15–20 μCi, total peptide dose ~ 20 ng) via the lateral tail vein. The mice were sacrificed by cervical dislocation at specified time points and blood samples were withdrawn with a syringe from the heart. Major organs such as lungs, stomach, spleen, pancreas, intestines, liver, kidneys, etc. were isolated, weighed, and radioactivity in each organs and tissues were measured using a γ-scintillation counter. Uptake of radioactivity in the tissues and organs was expressed as the percent injected dose per gram (% ID/g) of tissue/organ, which was calculated by comparison with standard solutions representing 10% of the injected dose per animal. For the clearance studies, radioactivity in the urine with bladder and feces is expressed as the percent of the injected dose per tissue (% ID). Values are expressed as mean ± SD for a group of 3-5 animals at each time point.

[5] = Radioactivity in Urine + bladder
[6] = Uptake in Intestines (measured without their contents)
[7] = ~300,000 cells, 0.1-25 nM radiopeptide, 60 min, room temperature, mean ± SD

Molecule CCCC[C@H](NC(=O)[C@H](Cc1c[nH]cn1)NC(=O)[C@H](CC1CCCCC1)NC(=O)[C@@H](NC(=O)[C@H](C)NC(=O)[C@H](Cc1c[nH]c2ccccc12)NC(=O)[C@H](CCC(N)=O)NC(=O)[C@H](CS)NC(=O)CNC(=O)CNC(=O)CCCCCNC(=O)CN1CCN(CC(=O)O)CCN(CC(=O)O)CCN(CC(=O)O)CC1)C(C)C)C(=O)N[C@@H](CCSC)C(N)=O [^68Ga-DOTA-Ahx-BN Cyclen, metal not drawn] ({DOTA-Ahx}-GGCQWAV[Cha]H[Nle]M-NH2) has a dose excreted at 1 h (in vivo [1]; [5]) of 64 ± 9.15%, a dose excreted at 2 h (in vivo [1]; [5]) of 70 ± 8.7% and a tissue uptake at 1 h (in vivo [1]; Uptake in Blood) of 0.92 ± 0.15 %ID/g. It also gave a tissue uptake at 2 h (in vivo [1]; Uptake in Blood) of 0.51 ± 0.07 %ID/g, a tissue uptake at 1 h (in vivo [1]; [6]) of 0.86 ± 0.12 %ID/g and a tissue uptake at 2 h (in vivo [1]; [6]) of 0.61 ± 0.06 %ID/g. For the same molecule, the tissue uptake at 1 h (in vivo [1]; Uptake in Kidneys) was 4.93 ± 0.38 %ID/g, the tissue uptake at 2 h (in vivo [1]; Uptake in Kidneys) was 4.01 ± 0.41 %ID/g and the tissue uptake at 2 h (in vivo [1]; Uptake in Lungs) was 0.36 ± 0.03 %ID/g. The tissue uptake at 1 h (in vivo [1]; Uptake in Muscle) was 0.23 ± 0.03 %ID/g, the tissue uptake at 2 h (in vivo [1]; Uptake in Muscle) was 0.19 ± 0.02 %ID/g and the tissue uptake at 1 h (in vivo [1]; Uptake in Pancreas) was 1.65 ± 0.14 %ID/g. The tissue uptake at 2 h (in vivo [1]; Uptake in Pancreas) was 0.82 ± 0.1 %ID/g, the tissue uptake at 1 h (in vivo [1]; Uptake in Spleen) was 0.25 ± 0.02 %ID/g and the tissue uptake at 2 h (in vivo [1]; Uptake in Spleen) was 0.14 ± 0.01 %ID/g. The tissue uptake at 1 h (in vivo [1]; Uptake in Stomach) was 0.73 ± 0.13 %ID/g, the tissue uptake at 2 h (in vivo [1]; Uptake in Stomach) was 0.34 ± 0.05 %ID/g and the “Bmax (apparent number of binding sites per cell)” value ([2]; SD < 15%) was 5.13 × 10^5 sites/cell. For the same molecule, the Kd [2, 7] was 12.7 ± 2.94 nM, the “Bmax (apparent number of binding sites per cell)” value ([3]; SD < 15%) was 5.29 × 10^5 sites/cell and the Kd [3, 7] was 9.89 ± 1.56 nM. For the same molecule, the “Uptake in Lungs” value (in vivo [4]; 2 h) was 0.10 ± 0.02 %ID/g, the dose excreted at 1 h (in vivo [4]; %ID excreted in Feces) was 0.85 ± 0.17% and the dose excreted at 2 h (in vivo [4]; %ID excreted in Feces) was 0.76 ± 0.11%. It also gave a dose excreted at 1 h (in vivo [4]; %ID excreted in Urine) of 80 ± 9.8%, a dose excreted at 2 h (in vivo [4]; %ID excreted in Urine) of 64 ± 6.35% and a tissue uptake at 1 h (in vivo [4]; Uptake in Blood) of 0.18 ± 0.04 %ID/g. It also gave a tissue uptake at 2 h (in vivo [4]; Uptake in Blood) of 0.11 ± 0.03 %ID/g, a tissue uptake at 1 h (in vivo [4]; Uptake in Bone) of 0.15 ± 0.03 %ID/g and a tissue uptake at 2 h (in vivo [4]; Uptake in Bone) of 0.06 %ID/g. It also gave a tissue uptake at 1 h (in vivo [4]; [6]) of 0.64 ± 0.12 %ID/g, a tissue uptake at 2 h (in vivo [4]; [6]) of 0.41 ± 0.05 %ID/g and a tissue uptake at 1 h (in vivo [4]; Uptake in Kidneys) of 1.98 ± 0.34 %ID/g. The tissue uptake at 2 h (in vivo [4]; Uptake in Kidneys) was 1.41 ± 0.27 %ID/g, the tissue uptake at 1 h (in vivo [4]; Uptake in Liver) was 0.61 ± 0.1 %ID/g and the tissue uptake at 2 h (in vivo [4]; Uptake in Liver) was 0.46 ± 0.07 %ID/g. For the same molecule, the tissue uptake at 1 h (in vivo [4]; Uptake in Lungs) was 0.19 ± 0.04 %ID/g, the tissue uptake at 1 h (in vivo [4]; Uptake in Pancreas) was 1.49 ± 0.12 %ID/g and the tissue uptake at 2 h (in vivo [4]; Uptake in Pancreas) was 1.02 ± 0.15 %ID/g. For the same molecule, the tissue uptake at 1 h (in vivo [4]; Uptake in Spleen) was 0.13 ± 0.01 %ID/g, the tissue uptake at 2 h (in vivo [4]; Uptake in Spleen) was 0.09 ± 0.01 %ID/g and the tissue uptake at 1 h (in vivo [4]; Uptake in Stomach) was 1.48 ± 0.22 %ID/g. The tissue uptake at 2 h (in vivo [4]; Uptake in Stomach) was 0.43 ± 0.11 %ID/g.
